# Measurements from patent publication US20180021429A1, “ANTICANCER AGENTS OR ANTIMETASTATIC AGENTS USING FSTL1 AND COMBINATION DRUG THEREOF” (PHARMA FOODS INTERNATIONAL CO., LTD., priority 2015, published 2018).
# Positions count from the first letter of the chain named. Entries after “also recorded” stand apart in the source; their conditions may differ.
# T1: human FSTL1 (Homo sapiens, UniProt Q12841)
# T1 construct: AAA linker + 10xHis (C); made in house; host or cells: Expi293 (transient expression; purified from culture supernatant on HisPur Cobalt Resin)
# T1 sequence (Q12841 with tags, fused parts or gaps): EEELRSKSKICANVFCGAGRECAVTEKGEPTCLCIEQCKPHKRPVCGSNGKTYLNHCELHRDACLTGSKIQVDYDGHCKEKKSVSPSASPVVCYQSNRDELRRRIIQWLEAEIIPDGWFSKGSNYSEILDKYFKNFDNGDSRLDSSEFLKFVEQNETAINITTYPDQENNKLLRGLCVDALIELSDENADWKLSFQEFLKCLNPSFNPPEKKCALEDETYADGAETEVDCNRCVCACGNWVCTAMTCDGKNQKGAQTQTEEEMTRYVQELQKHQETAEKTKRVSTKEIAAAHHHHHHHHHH
# B1: #33: chicken-mouse chimeric anti-FSTL1 antibody clone; variable regions SEQ ID NO: 823 (light), 825 (heavy) (antibody, V domains shown)
# VH: AVTLDESGGGLQTPGGGLSLVCKASGFTFSSFNMNWVRQAPGKGLEYVAEISGTGSSTYYGSAVKGRATISRDNGQSTVRLQLNNLRAEDTATYFCARGDGAYSIDAWGHGTEVIVSS
# VL: ASTQPSSVSANPGETVEITCSGDSSYYGWFQQKSPGSAPVTVIYDNTNRPSDIPSRFSGSKSGSTATLTITGVRAEDEAVYYCGGYDSSTYDGIFGAGTTLTVL
# modifications: mouse constant regions
# B2: #13: chicken-mouse chimeric anti-FSTL1 antibody clone; variable regions SEQ ID NO: 815 (light), 817 (heavy) (antibody, V domains shown)
# VH: AVTLDESGGGLQTPGGGLSLVCKASGFTFSSVTMQWVRQAPGKGLEWVASICSGSSTYYGPAVKGRATISRDNGQNTVRLQLNNLRAEDTATYYCAKIVGRGRWSCTSAAYNIDAWGHGTEVIVSS
# VL: ASTQPSSVSANPGETVKITCSGGGNNYGWYQQKSPGSAPVTVIYNNNNRPSNIPSRFSGSKSGSTNTLTITGVQAEDEAVYYCGSYDSSSDSGIFGAGTTLTVL
# modifications: mouse constant regions
# B3: #8-1: chicken-mouse chimeric anti-FSTL1 antibody clone; variable regions SEQ ID NO: 791 (light), 793 (heavy) (antibody, V domains shown)
# VH: AVTLDESGGGLQTPGGALSLVCKGSGFTFSSFNMFWVRQAPGKGLEWVAGIGKDGVPKYGAAVDGRATISKDNGQSTMRLQLNNLRAEDTGTYFCAKAAGGCSYDWCGIYAGDIDTWGHGTEVIVSS
# VL: ASTQPSSVSANPGEAVKITCSGGSGSYYGWYQQKSPGSAPVTVIYNNNQRPSDIPSRFSGSKSGSTATLTITGVQAEDEAVYFCGGYDSSSGHGGIFGAGTTLTVL
# modifications: mouse constant regions
# B4: #6-55: chicken-mouse chimeric anti-FSTL1 antibody clone; variable regions SEQ ID NO: 783 (light), 785 (heavy) (antibody, V domains shown)
# VH: AVTLDESGGGLQTPGGALSLVCKGSGFTFTSVTMQWVRQAPGKGLEWVASVCSGSSTYYAPAVKGRATISRDNGQSTVRLQLSNLRPEDTGTYYCAKIAGRARWSCTSAAYNIDAWGHGTEVIVSS
# VL: ASTQPSSVSAIPGETVKITCSGGGNNYGWYQQRSPGSAPVTVIYYNDNRPSNIPSRFSGSTSGSTSTLTITGVQADDEAIYYCGSWDSNTDSGIFGAGTTLTVL
# modifications: mouse constant regions
# B5: #7-34: chicken-mouse chimeric anti-FSTL1 antibody clone; variable regions SEQ ID NO: 787 (light), 789 (heavy) (antibody, V domains shown)
# VH: B2 VH
# VL: B2 VL with N45Y, K61T, N66S, D87E, S88G, S90T
# modifications: mouse constant regions
# Assays:
# [1] = system: C57/BL/6 mouse-derived bone marrow cells; experiment: MSC induction inhibition test using mouse bone marrow cells, FSTL1 stimulation (Example 27); type: cell-based; details: FSTL1 20 ng/mL; antibody 10 μg/mL; 8 days; FIG. 21A
# Procedure: In this Example, the inhibitory activity of the anti-FSTL1 antibody was confirmed in an experimental system of mesenchymal stem cell induction while a FSTL1 inhibitory effect on MSC expansion induced not only by FSTL1 but by Snail+ tumor cells was also evaluated. For specific operation, each antibody (10 μg/mL) was added to systems in which C57/BL/6 mouse-derived bone marrow cells were stimulated with FSTL1 (20 ng/mL) or a culture supernatant of tumor cells. After culture for 8 days under stimulation, cell fraction CD45(−) cells (MSCs) containing MSCs at a high rate and CD45(−)CD146(+)ALCAM(+) cells (sMSCs) increasing in number in association with cancer metastasis were analyzed by flow cytometry in the same way as in Example 14, and the number of cells per culture system was counted. In this Example, mouse immunoglobulin manufactured by BioLegend, Inc. (#401408, Cone MG1-45) was used as a control antibody.
# [2] = system: mouse melanoma cells (B16-F10) forced to express Snail; experiment: In vivo, intraperitoneal administration, Snail-positive B16-F10 bone metastasis model (Example 18); set-up: species or system C57BL/6N mice; details: intraperitoneal 10 mg/kg on days 5 and 10; day 14
# Text: 1. Experiment Group (n=5) • 1. No treatment (0.9% NaCi as a sham) • 2. Control IgG (anti-DNP) • 3. Anti-FSTL1 Clone #6-55 • 4. Anti-FSTL1 Clone #7-34 • 5. Anti-FSTL1 Clone #8-1 […]
# (§1) • Effects on the growth of subcutaneous tumor (calculation of tumor volume by tumor size measurement): measured 7, 11, and 14 days after tumor implantation (FIG. 12B) • Effects on bone metastasis (GFP-positive tumor cells in bone marrow or the spleen) (FIGS. 12A and 12C) • Effects on MSC expansion (CD45-negative cells in bone marrow or the spleen) (FIGS. 12A and 12C) • Effects on weight loss (FIG. 12A) • Effects on the expansion of immunosuppressive Treg cells (CD4-positive and Foxp3-positive cells in the spleen) (FIG. 12C) • Other immunosuppressive properties (FIG. 12C)
# (§2) In Example 17, the antibody was administered into tumor according to the purpose of “inhibiting metastasis from a primary focus to bone” as previously conducted by the present inventors. […] Specifically, antitumor effects and immunosuppression-mitigating effects were comparatively analyzed by the intraperitoneal administration (systemic administration) of the anti-FSTL1 antibody using bone metastasis models in which mouse melanoma cells (B16-F10) forced to express Snail were subcutaneously and intravenously transplanted in C57BL/6N mice. […]
# [3] = system: GFP-positive and Snail-positive B16-F10 tumor cells; experiment: Snail-positive B16-F10 bone metastasis model, intraperitoneal administration (Example 18); type: in vivo, mouse; details: intraperitoneal 10 mg/kg on days 5 and 10; FIG. 106A
# Text: 1. Experiment Group (n=5) • 1. No treatment (0.9% NaCl as a sham) • 2. Control IgG (anti-DNP) • 3. Anti-FSTL1 Clone #6-55 • 4. Anti-FSTL1 Clone #7-34 • 5. Anti-FSTL1 Clone #8-1 […]
# as §1, with “106B)” for “12B)”, “106A” for “12A”, “106C)” for “12C)”, “(CD45− negative” for “(CD45-negative”, “106A)” for “12A)”
# as §2
# human FSTL1 = biological target: T1, human FSTL1; experiment: ELISA, binding activity of purified antibody against human FSTL1 (Example 2); details: cross reactivity test; antibody diluted from 1000 ng/ml
# Procedure: The reactivity of the obtained antibody clones described above with FSTL1 was evaluated by ELISA under the following conditions.
# Antibodies used: anti-dinitrophenyl (DNP) antibody (negative control), #5-2, #5-3, #5-8, #5-10, #5-43, #6-55, and #7-34
# FIGS. 64 and 65 show results of evaluating binding activity under the condition of Table 3 as to clones differing in screening and antibody purification timings.
Molecule,"MSC induction inhibitory activity (CD45(−) MSCs, CD45(−)CD146(+)ALCAM(+) sMSCs) [1]",anti-weight loss effect [2],anti-weight loss effect [3],binding activity against human FSTL1 (human FSTL1)
B1,strong inhibitory effect equivalent to or higher than that of #6-55; also recorded: high MSC induction inhibitory activity equivalent to or higher than that of #6-55,,,
B2,strong inhibitory effect equivalent to or higher than that of #6-55,,,
B3,,an anti-weight loss effect (right graph of FIG. 12A) was confirmed,confirmed,
B4,,an anti-weight loss effect (right graph of FIG. 12A) was confirmed,confirmed,specific and equivalently strong binding activity
B5,,,,specific and equivalently strong binding activity
